Assay results taken from patent US20060019314A1.

Columns and labels:
FOXO3a (human) = FOXO3a (human) (UniProt O43524); assay: cell-based or functional assay
FOXO3a-TM (human) = FOXO3a-TM (human) (UniProt O43524); assay: cell-based or functional assay

Q: What does the source list for human Smek1 (from UniProt Q6IN85 1-833)?
A: synthetic FOXO luciferase reporter (three tandem IRS elements), HepG2 cells (percent increase) (FOXO3a (human)): 50; synthetic FOXO luciferase reporter (three tandem IRS elements), 293 cells (FOXO3a-TM (human)): 12 fold; synthetic FOXO luciferase reporter (three tandem IRS elements), HepG2 cells (FOXO3a-TM (human)): 2 fold
